Consider 94 variants from the supplement of paper PMC10567573.

B1: TRIM29 (parent)
chain: RKCPVHGKTMELFCQTDQTCICYL
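Also: lentivirally expressed fusions sorted by FACS into six bins by GFP to DsRed ratio, PSI derived from sequencing read proportions per bin multiplied by bin number.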

The data set covers variants of B1. Kind of data set: protein stability index of a GFP-peptide fusion (GPS, HEK-293T) (PSI 1-6); higher = more stable. The conditions noted are these: c terminus: a fixed tail appended.
As for RKCPVHGKTMELFCQTDQYCICYL [T19Y], the protein stability index stood at 1.89.
The value for RKCPVHGKTMELFCQTDQWCICYL [T19W] was 2.47; that for RKCPVHGKTMELFCQTDQMCICYL [T19M] was 2.51.
The same measure for RKCPVHGKTMELFCQTDQSCICYL [T19S]: 2.63; for RKCPVHGKTMELFCQTDQHCICYL [T19H]: 2.95; for RKCPVHGKTMELFCQTDQGCICYL [T19G]: 2.42.
The value for RKCPVHGKTMELFCQTDQACICYL [T19A] was 3.62.
As for RKCPVHGKTMELFCQTDQDCICYL [T19D], the protein stability index is 1.6.
In the case of RKCPVHGKTMELFCQTDQPCICYL [T19P], the protein stability index stood at 2.35.
The value for RKCPVHGKTMELFCQTDQCCICYL [T19C] was 2.66; that for RKCPVHGKTMELFCQTDQKCICYL [T19K] was 2.44.
The value for RKCPVHGKTMELFCQTDQECICYL [T19E] was 2.4.
The same measure for RKCPVHGKTMELFCQTDQFCICYL [T19F]: 1.88; for RKCPVHGKTMELFCQTDQNCICYL [T19N]: 2.16.
As for RKCPVHGKTMELFCQTDQICICYL [T19I], the protein stability index came out at 3.16.
In the case of RKCPVHGKTMELFCQTDQLCICYL [T19L], the protein stability index was 1.59.
On to RKCPVHGKTMELFCQTDQVCICYL [T19V], for which the protein stability index was 1.31.
As for RKCPVHGKTMELFCQTDQQCICYL [T19Q], the protein stability index worked out at 2.32.
As to RKCPVHGKTMELFCQTDQTCICLL [Y23L], the protein stability index amounted to 2.58.
The same measure for RKCPVHGKTMELFCQTDQTCICTL [Y23T]: 4.17; for RKCPVHGKTMELFCQTDQTCICFL [Y23F]: 1.65.
The value for RKCPVHGKTMELFCQTDQTCICIL [Y23I] was 2.73; that for RKCPVHGKTMELFCQTDQTCICKL [Y23K] was 4.52.
RKCPVHGKTMELFCQTDQTCICDL [Y23D]: the protein stability index stood at 5.55.
The same measure for RKCPVHGKTMELFCQTDQTCICVL [Y23V]: 2.66; for RKCPVHGKTMELFCQTDQTCICSL [Y23S]: 4.29; for RKCPVHGKTMELFCQTDQTCICRL [Y23R]: 3.95.
Turning to RKCPVHGKTMELFCQTDQTCICPL [Y23P], the protein stability index amounted to 5.16.
The same measure for RKCPVHGKTMELFCQTDQTCICAL [Y23A]: 4.28; for RKCPVHGKTMELFCQTDQTCICQL [Y23Q]: 4.28; for RKCPVHGKTMELFCQTDQTCICML [Y23M]: 3.38.
For the variant RKCPVHGKTMELFCQTDQTCICWL [Y23W], the protein stability index came to 1.59.
The same measure for RKCPVHGKTMELFCQTDQTCICCL [Y23C]: 4.73; for RKCPVHGKTMELFCQTDQTCICEL [Y23E]: 5.25; for RKCPVHGKTMELFCQTDQTCICNL [Y23N]: 4.91.
The same measure for RKCPVHGKTMELFCQTDQTCICHL [Y23H]: 4.24; for RKCPVHGKTMELFCQTDQTCICGL [Y23G]: 4.98.
The same measure for RKCPVHGKTMELFCQTRQTCICYL [D17R]: 2.8; for RKCPVHGKTMELFCQTLQTCICYL [D17L]: 3.97; for RKCPVHGKTMELFCQTFQTCICYL [D17F]: 1.49.
In the case of RKCPVHGKTMELFCQTAQTCICYL [D17A], the protein stability index worked out at 2.19.
RKCPVHGKTMELFCQTSQTCICYL [D17S]: the protein stability index stood at 1.49.
Turning to RKCPVHGKTMELFCQTHQTCICYL [D17H], the protein stability index came out at 1.89.
For RKCPVHGKTMELFCQTGQTCICYL [D17G], the protein stability index is 2.73.
With RKCPVHGKTMELFCQTIQTCICYL [D17I], the protein stability index stood at 1.79.
Consider RKCPVHGKTMELFCQTCQTCICYL [D17C], for which the protein stability index came to 2.08.
As to RKCPVHGKTMELFCQTKQTCICYL [D17K], the protein stability index came out at 1.52.
RKCPVHGKTMELFCQTYQTCICYL [D17Y]: the protein stability index is 2.92.
The value for RKCPVHGKTMELFCQTEQTCICYL [D17E] was 3.12.
The same measure for RKCPVHGKTMELFCQTNQTCICYL [D17N]: 1.7.
The value for RKCPVHGKTMELFCQTTQTCICYL [D17T] was 1.76; that for RKCPVHGKTMELFCQTMQTCICYL [D17M] was 1.93.
In the case of RKCPVHGKTMELFCQTQQTCICYL [D17Q], the protein stability index came out at 1.66.
The same measure for RKCPVHGKTMELFCQTPQTCICYL [D17P]: 2.04; for RKCPVHGKTMELFCQTDQTLICYL [C20L]: 2.28; for RKCPVHGKTMELFCQTDQTHICYL [C20H]: 3.04.
On to RKCPVHGKTMELFCQTDQTGICYL [C20G], for which the protein stability index was determined as 3.31.
Take RKCPVHGKTMELFCQTDQTRICYL [C20R]: the protein stability index was 2.38.
As for RKCPVHGKTMELFCQTDQTKICYL [C20K], the protein stability index worked out at 3.17.
With RKCPVHGKTMELFCQTDQTNICYL [C20N], the protein stability index is 3.24.
The same measure for RKCPVHGKTMELFCQTDQTMICYL [C20M]: 3.2; for RKCPVHGKTMELFCQTDQTVICYL [C20V]: 1.27.
Take RKCPVHGKTMELFCQTDQTAICYL [C20A]: the protein stability index came out at 3.08.
For the variant RKCPVHGKTMELFCQTDQTIICYL [C20I], the protein stability index worked out at 1.25.
The same measure for RKCPVHGKTMELFCQTDQTSICYL [C20S]: 2.56; for RKCPVHGKTMELFCQTDQTDICYL [C20D]: 3.16.
The value for RKCPVHGKTMELFCQTDQTQICYL [C20Q] was 3.07; that for RKCPVHGKTMELFCQTDQTPICYL [C20P] was 1.83; that for RKCPVHGKTMELFCQTDQTWICYL [C20W] was 2.42.
The same measure for RKCPVHGKTMELFCQTDQTYICYL [C20Y]: 2.78; for RKCPVHGKTMELFCQTDQTCECYL [I21E]: 4.47; for RKCPVHGKTMELFCQTDQTCHCYL [I21H]: 2.98.
Regarding RKCPVHGKTMELFCQTDQTCGCYL [I21G], the protein stability index amounted to 3.1.
Turning to RKCPVHGKTMELFCQTDQTCSCYL [I21S], the protein stability index is 1.91.
The value for RKCPVHGKTMELFCQTDQTCKCYL [I21K] was 2.02; that for RKCPVHGKTMELFCQTDQTCVCYL [I21V] was 1.92; that for RKCPVHGKTMELFCQTDQTCMCYL [I21M] was 2.36.
The same measure for RKCPVHGKTMELFCQTDQTCRCYL [I21R]: 1.88.
The same measure for RKCPVHGKTMELFCQTDQTCPCYL [I21P]: 2.44.
Take RKCPVHGKTMELFCQTDQTCLCYL [I21L]: the protein stability index was determined as 1.73.
The value for RKCPVHGKTMELFCQTDQTCTCYL [I21T] was 3; that for RKCPVHGKTMELFCQTDQTCCCYL [I21C] was 3.49.
The value for RKCPVHGKTMELFCQTDQTCFCYL [I21F] was 2.86; that for RKCPVHGKTMELFCQTDQTCDCYL [I21D] was 4.33; that for RKCPVHGKTMELFCQTDQTCQCYL [I21Q] was 3.36.
Take RKCPVHGKTMELFCQTDQTCYCYL [I21Y]: the protein stability index came to 3.25.
The same measure for RKCPVHGKTMELFCQTDQTCWCYL [I21W]: 2.78; for RKCPVHGKTMELFCQTDQTCNCYL [I21N]: 2.52; for RKCPVHGKTMELFCQTDQTCACYL [I21A]: 2.77.
For the variant RKCPVHGKTMELFCQTDQTCICYK [L24K], the protein stability index was found to be 4.82.
The same measure for RKCPVHGKTMELFCQTDQTCICYY [L24Y]: 3.86; for RKCPVHGKTMELFCQTDQTCICYP [L24P]: 5.26; for RKCPVHGKTMELFCQTDQTCICYG [L24G]: 5.15.
On to RKCPVHGKTMELFCQTDQTCICYN [L24N], for which the protein stability index worked out at 4.57.
